*1 amine or outer side, *2 acyl side, *3 side chain or, on linkers, in order; H or OH if unused. [ ]: non-standard residue; d: D form. Phe(4-OMe) = COc1ccc(C[C@H](N[*:1])C(=O)[*:2])cc1; Phe(4-I) = N[C@@H](Cc1ccc(I)cc1)C(=O)O; 1Nal = N[C@@H](Cc1cccc2ccccc12)C(=O)O; hPhe = N[C@@H](CCc1ccccc1)C(=O)O; 4Pal = N[C@@H](Cc1ccncc1)C(=O)O; Phg = N[C@H](C(=O)O)c1ccccc1
B1: cyclo-CRLII(hF) (peptide)
chain: cyclo(CRLII[hPhe])
SMILES: CC[C@H](C)[C@@H]1NC(=O)[C@H](CC(C)C)NC(=O)[C@H](CCCNC(=N)N)NC(=O)[C@H](CS)NC(=O)[C@H](CCc2ccccc2)NC(=O)[C@H]([C@@H](C)CC)NC1=O
B2: cyclo-CRLII(D-F) (peptide)
chain: cyclo(CRLII[dF])
SMILES: CC[C@H](C)[C@@H]1NC(=O)[C@H](CC(C)C)NC(=O)[C@H](CCCNC(=N)N)NC(=O)[C@H](CS)NC(=O)[C@@H](Cc2ccccc2)NC(=O)[C@H]([C@@H](C)CC)NC1=O
B3: cyclo-CRLII(1-Nal) (peptide)
chain: cyclo(CRLII[1Nal])
SMILES: CC[C@H](C)[C@@H]1NC(=O)[C@H](CC(C)C)NC(=O)[C@H](CCCNC(=N)N)NC(=O)[C@H](CS)NC(=O)[C@H](Cc2cccc3ccccc23)NC(=O)[C@H]([C@@H](C)CC)NC1=O
B4: cyclo-CRLII(4-Pal) (peptide)
chain: cyclo(CRLII[4Pal])
SMILES: CC[C@H](C)[C@@H]1NC(=O)[C@H](CC(C)C)NC(=O)[C@H](CCCNC(=N)N)NC(=O)[C@H](CS)NC(=O)[C@H](Cc2ccncc2)NC(=O)[C@H]([C@@H](C)CC)NC1=O
B5: cyclo-CRLII(4-iodo)F (peptide)
chain: cyclo(CRLII[Phe(4-I)])
SMILES: CC[C@H](C)[C@@H]1NC(=O)[C@H](CC(C)C)NC(=O)[C@H](CCCNC(=N)N)NC(=O)[C@H](CS)NC(=O)[C@H](Cc2ccc(I)cc2)NC(=O)[C@H]([C@@H](C)CC)NC1=O
B6: cyclo-CRLII(4-iodo)F (peptide)
chain: cyclo(CRLII[Phe(4-I)])
SMILES: CC[C@H](C)[C@@H]1NC(=O)[C@H](CC(C)C)NC(=O)[C@H](CCCNC(=N)N)NC(=O)[C@H](CS)NC(=O)[C@H](Cc2ccc(I)cc2)NC(=O)[C@H]([C@@H](C)CC)NC1=O
B7: cyclo-CRLII(Phg) (peptide)
chain: cyclo(CRLII[Phg])
SMILES: CC[C@H](C)[C@@H]1NC(=O)[C@H](CC(C)C)NC(=O)[C@H](CCCNC(=N)N)NC(=O)[C@H](CS)NC(=O)[C@H](c2ccccc2)NC(=O)[C@H]([C@@H](C)CC)NC1=O

How the values were obtained:
HIF-2α PAS-B [1] = target: HIF-2α PAS-B (Homo sapiens, UniProt Q99814); assay: MST
Target sequence in this assay (Q99814 240-350): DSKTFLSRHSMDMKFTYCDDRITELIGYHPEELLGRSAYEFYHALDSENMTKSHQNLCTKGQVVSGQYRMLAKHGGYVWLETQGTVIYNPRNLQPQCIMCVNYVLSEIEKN

HIF-1α PAS-B [2] = target: T1, HIF-1α PAS-B (Homo sapiens, UniProt Q16665); assay: MST
HIF-1α PAS-B [3] = target: T1, HIF-1α PAS-B; assay: FP
HIF-2α PAS-B [4] = target: HIF-2α PAS-B (Homo sapiens, UniProt Q99814); assay: MST; remark: listed apart in the source
Target sequence in this assay (Q99814 240-350 G323E): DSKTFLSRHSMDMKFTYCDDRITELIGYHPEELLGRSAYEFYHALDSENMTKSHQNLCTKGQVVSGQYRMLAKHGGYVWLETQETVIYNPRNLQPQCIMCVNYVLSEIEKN

T1 sequence (Q16665 238-349): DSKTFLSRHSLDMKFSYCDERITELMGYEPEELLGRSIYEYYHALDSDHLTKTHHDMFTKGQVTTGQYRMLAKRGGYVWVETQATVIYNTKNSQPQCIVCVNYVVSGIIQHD

Binder	Kd (HIF-1α PAS-B [2])	other results
CRVIIF (head-to-tail cyclic peptide) [cyclo-CRVIIF]	65 µM	Kd (HIF-2α PAS-B [1]): 123 µM
cyclo(CRLIIF) (also: Cy5-labeled HIF-1α)	–	Kd (HIF-1α PAS-B [3]): 4.6 µM
B1	1.2 µM	–
cyclo(CRLII[Phe(4-Bz)]) [cyclo-CRLII(4-Bz)F]	1.6 µM	–
B2	6.2 µM	–
CKLIIF (head-to-tail cyclic peptide) [cyclo-CKLIIF]	2.6 µM	Kd (HIF-2α PAS-B [1]): 2.2 µM
CKLLIF (head-to-tail cyclic peptide) [cyclo-CKLLIF]	12 µM	–
B3	1.7 µM	–
CRLIIF (head-to-tail cyclic peptide)	3.8 µM	–
B4	39.6 µM	–
B5	0.821 µM	Kd (HIF-2α PAS-B [1]): 1.7 µM
CRLLIF (head-to-tail cyclic peptide) [cyclo-CRLLIF]	14.5 µM	Kd (HIF-2α PAS-B [1]): 10.2 µM
B6	–	Kd (HIF-2α PAS-B [4]): 7.2 µM
B7	5.8 µM	–
cyclo(CRLII[Phe(4-OMe)]) [cyclo-CRLII(4-OMe)F]	11.2 µM	–

— article PMC10996005 (2024)
